B1: h2c-V1: humanized mAb 2c variant, CDR grafting onto DP28/DPK13, no backmutations (antibody, V domains shown)
VH: QVTLKESGPALVKPTQTLTLTCTFSGFSLSTSGMSVGWIRQPPGKALEWLAHIWWNNDKYYKPALKSRLTISKDTSKNQVVLTMTNMDPVDTATYYCARIYYGYRPYAMDYWGQGTLVTVSS
VL: DIVMTQTPLSLPVTPGEPASISCRSSQSIVHSNGNTYLEWYLQKPGQSPQLLIYKVSNRFSGVPDRFSGSGSGTDFTLKISRVEAEDVGVYYCFQGSHVPWSFGQGTKVEIKR

How the values were obtained:
[1] = tested on: patient derived HSV-1 isolate resistant towards Acyclovir, Foscarnet and Cidovovir; test: Treatment of NOD/SCID mice infected with multi-resistant patient HSV-1 isolate; format: in vivo; settings: for protection against lethal encephalitis: 15 mg/kg i.v. at 24 h, 40 h and 56 h post infection
Text: Mice receiving twice daily standard treatment with Acyclovir all died within 28 days.
Furthermore, the humanized mAb 2c-V1 also confers protection from viral dissemination and lethal encephalitis in the presence of an established peripheral HSV infection. […] In contrast, mice receiving Acyclovir all died (FIG. 12).

human DNA polymerase = settings: background statement; cited from earlier work
[2] = target: T1, glycoprotein B on surface of HSV-1 F infected Vero cells (Human herpesvirus 1, UniProt P06436); test: Affinity constants (KD) by flow cytometry on HSV-1 F infected Vero cells; format: binding
T1 construct: expressing the gB-protein as membrane associated glycoprotein on the cell surface during the natural HSV replication cycle; endogenous in cells; host or cells: Vero cells infected with HSV-1 F (MOI 3); gB is made by the virus in the infected cell

[3] = tested on: HSV-1 laboratory strains and clinical isolates; test: Neutralization of HSV-1 laboratory strains and clinical isolates (FIG. 8); format: cell-based
Experimental: (§1) To determine the titer of mAb h2c-V1 for complete virus neutralization several antibody concentrations were incubated for 1 h at 37° C. with 100 TCID50 of HSV-1 or HSV-2 isolates and incubated for 3 days with Vero cells. MAb hu2c-V1 neutralizes HSV-1 laboratory strains HSV-1 F, HSV-1 324 hv, HSV-1 17 syn^+, HSV-1 TK^− completely at concentrations of 7.8-15.6 nM. HSV-1 clinical isolates are neutralized by mAb h2c-V1 similarly irrespective of their resistance profile. Furthermore, the same neutralization efficiency of mAb hu2c-V1 was shown for strain HSV-2 G and ACV-resistant HSV-2 isolates at concentrations of 31.3-62.5 nM.

[4] = tested on: HSV-2 G and ACV-resistant HSV-2 isolates; test: Neutralization of HSV-2 strain and isolates (FIG. 8); format: cell-based; settings: 100 TCID50, 3 days
Experimental: as §1

[5] = target: T2, gB present on the surface of HSV-1 infected Vero cells (Human herpesvirus 1, UniProt P06436); test: Competition study with mAb 2c by flow cytometry; format: binding; settings: increasing concentrations, then 100 nM mAb 2c
T2 construct: endogenous in cells; host or cells: Vero cells infected with HSV-1 (3 moi, 20 h)

HSV-1 = test: Plaque-reduction assay with or without human complement; format: cell-based; settings: 2 μg/ml, with or without 10% human complement
HSV-1 F [6] = test: Cell-to-cell spread assay in Vero cell monolayers; format: cell-based; settings: 500 nM, 48 h
Experimental: Vero cells grown to confluency on glass cover slips in 24-weel tissue culture plates are infected for 4 h at 37° C. with a constant virus amount of 400 TCID50/well. One median tissue culture infective dose (1 TCID50) is the amount of a cytopathogenic agent, such as a virus, that will produce a cytopathic effect in 50% of the cell cultures inoculated. The virus inoculum is subsequently removed, the cells washed twice with PBS and further incubated for 2 days at 37° C. in 1 ml DMEM, 2% FCS, Pen/Strep containing an excess of either different anti-HSV antibodies or polyclonal anti-HSV control serum in order to prevent viral spreading via the supernatant Viral antigens of HSV-infected cells are detected with a fluorescence labelled polyclonal goat-anti-HSV-serum (BETHYL Labolatories, Montgomery, Tex. USA, Catalog No. A190-136F, Lot No. A190-136F-2).
Two days after infection spreading of the virus was detected with fluorescence labeled polyclonal goat-anti-HSV serum using a Leica DM IRE2 confocal microscope at 40-fold magnification.
For spreading within a host HSV uses two mechanisms: release of cell-free particles and direct, cell-to-cell spread. […] Viral antigens were detected by staining of HSV-1 infected cell monolayers with FITC-conjugated polyclonal goat-anti-HSV serum (BETHYL, Montgomery, Tex., USA) diluted 1:100 in blocking buffer. […]

HSV-1 F [7] = test: Passive immunization of NOD/SCID mice 24 h before intravaginal HSV-1 challenge; format: in vivo; settings: 24 h prior to infection
Experimental: Mice were infected intravaginally with 1×10^6 TCID50/20 μl of the neurovirulent HSV-1 strain F. Infected mice with symptoms of weight loss, vulvitis/vaginitis or neurological diseases were killed, and their organs examined for infectious virus by titration on Vero cell monolayers as described previously. Non-infected mice were killed at day 30. Animals per group n=7.
Animals per group n=7 for PBS, n=9 all other groups.
(§2) Anesthetized female nonobese diabetic/severe combined immunodeficient (NOD-SCID) mice (NOD.CB17-Prkdc^scid/J, Charles River Laboratories, Research Models and Services, Sulzfeld, Germany), 6-8 weeks of age, were challenged intravaginally with 20 μl inoculum of 1×10^6 TCID50 HSV-1 F per mouse. Skin glue (Epiglu, Meyer-Haake Medical Innovations, Wehrheim, Germany) was applied onto the vulva to prevent discharge of the virus inoculum. […] Mice were examined daily after viral inoculation for loss of weight, vulvitis/vaginitis (redness, mucopurulent discharge and signs of inflammation) and neurological disease. Mice displaying any of theses symptoms were sacrificed immediately. […] Mice were assessed for infection by determination of virus titers from vaginal irrigations obtained on days 1, 2, 4, 6 and 8 after infection and at the time of death using the endpoint dilution assay on Vero cells. Viral loads in organs (spleen, adrenal gland, lung heart, liver, kidney, spinal cord, and brain) of sacrificed mice were determined after homogenization of organs by titration on Vero cell monolayers as described elsewhere (41). Each test and control group contained 9-10 animals with detectable HSV-1 infection.
Natural killer (NK) cells accumulating at the site of HSV-2 infection in humans (28) are the early source of interferon-γ (45), which plays an essential role for the control of HSV infection (2, 45, 62).

HSV-1 F [8] = test: Post-exposure treatment of NOD/SCID mice with established HSV-1 infection; format: in vivo; settings: 15 mg/kg i.v. at 24 h, 40 h and 56 h post infection
Experimental: Infected animals per group n=7.
Vaginal virus titers of antibody or control treated mice were determined from vaginal irrigations cultured on Vero cell monolayers. Error bars indicate standard deviation.
as §2

Molecule	outcome of infection ([1]; standard treatment with Acyclovir)	time by which all mice died ([1]; twice daily standard treatment)	factor by which human DNA polymerase is less susceptible than viral DNA polymerase (human DNA polymerase)	affinity in comparison to mAb 2c [2]	concentration for complete neutralization ([3]; HSV-1 F, HSV-1 324 hv, HSV-1 17 syn+, HSV-1 TK−, 100 TCID50, 3 days)	neutralization of patient isolates clinically resistant to ACV, ACV and PFA, or ACV, PFA and CDV ([3]; compared with non-resistant laboratory strains)	concentration for complete neutralization [4]	competition with parental mAb 2c for binding [5]	complement dependence of HSV neutralization (HSV-1)	inhibition of cell-to-cell spread (HSV-1 F [6])	protection against lethal encephalitis (HSV-1 F [7]; 15 mg/kg i.v.)	survival (HSV-1 F [7]; single i.v. dose of 5 mg/kg)	protection from lethal outcome of established infection (HSV-1 F [8])	protection against lethal encephalitis ([1]; listed as mAb 2c-V1)	protection against lethal encephalitis ([1]; listed as mAb hu2c-V1)
Nc1nc(=O)c2ncn(COCCO)c2[nH]1 [Acyclovir, 2-Amino-9-(2-hydroxyethoxymethyl)-3H-purin-6-on, reference compound]	all died	≤ 28 days	30-50												
B1				affinity comparable to the murine mAb 2c	7.8 to 15.6 nM	with the same efficiency as non-resistant laboratory strains or clinical isolates with unknown resistance	31.3 to 62.5 nM	compete with the parental mAb 2c for binding to gB	neutralize HSV complement-independent	as efficient as the parenteral mAb 2c	fully protected against lethal encephalitis	prolongs the survival	completely protected from the lethal outcome of infection	prevented lethal encephalitis	significantly protected against lethal encephalitis

Source: patent publication US9657088B2, “Anti-HSV antibody” (priority 2009, dated 2017)
